{"source": "paper PMC11098746", "about": "(2024)", "binders": {"B1": {"name": "ADP338 (protein)", "chain": "MAPRAARAPATLLLALGAVLWPAAGAWELTILHTNDVHSRLEQTSEDSSKCVNASRCMGGVARLFTKVQQIRRAEPNVLLLDAGDQYQGTIWFTVYKGAEVAHFMNALRYDAMALGNHEFDNGVEGLIEPLLKEAKFPILSANIKAKGPLASQISGLYLPYKVLPVGDEVVGIVGYTSKETPFLSNPGTNLVFEDEITALQPEVDKLKTLNVNKIIALGHSGFEMDKLIAQKVRGVDVVVGGHSNTFLYTGNPPSKEVPAGKYPFIVTSDDGRKVPVVQAYAFGKYLGYLKIEFDERGNVISSHGNPILLNSSIPEDPSIKADINKWRIKLDNYSTQELGKTIVYLDGSSQSCRFRECNMGNLICDAMINNNLRHTDEMFWNHVSMCILNGGGIRSPIDERNNGTITWENLAAVLPFGGTFDLVQLKGSTLKKAFEHSVHRYGQSTGEFLQVGGIHVVYDLSRKPGDRVVKLDVLCTKCRVPSYDPLKMDEVYKVILPNFLANGGDGFQMIKDELLRHDSGDQDINVVSTYISKMKVIYPAVEGRIKFSTGS", "modifications": "bait human Fc-tagged dimer"}, "B2": {"name": "ADP304 (protein)", "chain": "MASGWWLWPLVAVCTADFFRDEAERIMRDSPVIDGHNDLPWQLLDMFNNRLQDERANLTTLAGTHTNIPKLRAGFVGGQFWSVYTPCDTQNKDAVRRTLEQMDVVHRMCRMYPETFLYVTSSAGIRQAFREGKVASLIGVEGGHSIDSSLGVLRALYQLGMRYLTLTHSCNTPWADNWLVDTGDSEPQSQGLSPFGQRVVKELNRLGVLIDLAHVSVATMKATLQLSRAPVIFSHSSAYSVCASRRNVPDDVLRLVKQTDSLVMVNFYNNYISCTNKANLSQVADHLDHIKEVAGARAVGFGGDFDGVPRVPEGLEDVSKYPDLIAELLRRNWTEAEVKGALADNLLRVFEAVEQASNLTQAPEEEPIPLDQLGGSCRTHYGYSS", "modifications": "bait human Fc-tagged dimer"}, "B3": {"name": "ADP389 (protein)", "chain": "PSSLSQEQSEQDAIYQNLTQLKAAVGELSEKSKLQEIYQELTQLKAAVGELPEKSKLQEIYQELTRLKAAVGELPEKSKLQEIYQELTRLKAAVGELPEKSKLQEIYQELTRLKAAVGELPEKSKLQEIYQELTELKAAVGELPEKSKLQEIYQELTQLKAAVGELPDQSKQQQIYQELTDLKTAFERLCRHCPKDWTFFQGNCYFMSNSQRNWHDSVTACQEVRAQLVVIKTAEEQNFLQLQTSRSNRFSWMGLSDLNQEGTWQWVDGSPLSPSFQRYWNSGEPNNSGNEDCAEFSGSGWNDNRCDVDNYWICKKPAACFRDE", "modifications": "bait human Fc-tagged dimer"}, "B4": {"name": "ADP344 (protein)", "chain": "MAWSFFRVVAMLFIFLVVVEVNSEFRIQVRDYNTKNGTIKWHSIRRQKREWIKFAAACREGEDNSKRNPIAKIHSDCAANQQVTYRISGVGIDQPPYGIFVINQKTGEINITSIVDREVTPFFIIYCRALNSMGQDLERPLELRVRVLDINDNPPVFSMATFAGQIEENSNANTLVMILNATDADEPNNLNSKIAFKIIRQEPSDSPMFIINRNTGEIRTMNNFLDREQYGQYALAVRGSDRDGGADGMSAECECNIKILDVNDNIPYMEQSSYTIEIQENTLNSNLLEIRVIDLDEEFSANWMAVIFFISGNEGNWFEIEMNERTNVGILKVVKPLDYEAMQSLQLSIGVRNKAEFHHSIMSQYKLKASAISVTVLNVIEGPVFRPGSKTYVVTGNMGSNDKVGDFVATDLDTGRPSTTVRYVMGNNPADLLAVDSRTGKLTLKNKVTKEQYNMLGGKYQGTILSIDDNLQRTCTGTININIQSFGNDDRTNTEPNTKITTNTGRQESTSSTNYDTSTTSTDSSQVYSSEPGNGAKDLLSDNVHFGPAG", "modifications": "bait human Fc-tagged dimer"}, "B5": {"name": "ADP156 (protein)", "chain": "MAILSFLPVLATESDWADCKSPQPWGHMLLWTAVLFLAPVAGTPAAPPKAVLKLEPQWINVLQEDSVTLTCRGTHSPESDSIQWFHNGNLIPTHTQPSYRFKANNNDSGEYTCQTGQTSLSDPVHLTVLSEWLVLQTPHLEFQEGETIVLRCHSWKDKPLVKVTFFQNGKSKKFSRSDPNFSIPQANHSHSGDYHCTGNIGYTLYSSKPVTITVQAPSSSPM", "modifications": "bait human Fc-tagged dimer"}, "B6": {"name": "ADP365 (protein)", "chain": "MALGSPGLLFLLFSSLRADTQEKEVRAMVGSDVELSCACPEGSRFDLNDVYVYWQTSESKTVVTYHIPQNSSLENVDSRYRNRALMSPAGMLRGDFSLRLFNVTPQDEQKFHCLVLSQSLGFQEVLSVEVTLHVAANFSVPVVSAPHSPSQDELTFTCTSINGYPRPNVYWINKTDNSLLDQALQNDTVFLNMRGLYDVVSVLRIARTPSVNIGCCIENVLLQQNLTVGSQTGNDIGERDKITENPVSTG", "modifications": "bait human Fc-tagged dimer"}, "B7": {"name": "ADP351 (protein)", "chain": "MARRRGSPGMGVHVGAALGALWFCLTGALEVQVPEDPVVALVGTDATLCCSFSPEPGFSLAQLNLIWQLTDTKQLVHSFAEGQDQGSAYANRTALFPDLLAQGNASLRLQRVRVADEGSFTCFVSIRDFGSAAVSLQVAAPYSKPSMTLEPNKDLRPGDTVTITCSSYQGYPEAEVFWQDGQGVPLTGNVTTSQMANEQGLFDVHSILRVVLGANGTYSCLVRNPVLQQDAHSSVTITPQRSPTGAVEVQVPEDPVVALVGTDATLRCSFSPEPGFSLAQLNLIWQLTDTKQLVHSFTEGRDQGSAYANRTALFPDLLAQGNASLRLQRVRVADEGSFTCFVSIRDFGSAAVSLQVAAPYSKPSMTLEPNKDLRPGDTVTITCSSYRGYPEAEVFWQDGQGVPLTGNVTTSQMANEQGLFDVHSVLRVVLGANGTYSCLVRNPVLQQDAHGSVTITGQPMTFPP", "modifications": "bait human Fc-tagged dimer"}, "B8": {"name": "ADP322 (protein)", "chain": "MAALGPALLQALWAGWVLTLQPLPPTAFTPNGTYLQHLARDPTSGTLYLGATNFLFQLSPGLQLEATVSTGPVLDSRDCLPPVMPDECPQAQPTNNPNQLLLVSPGALVVCGSVHQGVCEQRRLGQLEQLLLRPERPGDTQYVAANDPAVSTVGLVAQGLAGEPLLFVGRGYTSRGVGGGIPPITTRALWPPDPQAAFSYEETAKLAVGRLSEYSHHFVSAFARGASAYFLFLRRDLQAQSRAFRAYVSRVCLRDQHYYSYVELPLACEGGRYGLIQAAAVATSREVAHGEVLFAAFSSAAPPTVGRPPSAAAGASGASALCAFPLDEVDRLANRTRDACYTREGRAEDGTEVAYIEYDVNSDCAQLPVDTLDAYPCGSDHTPSPMASRVPLEATPILEWPGIQLTAVAVTMEDGHTIAFLGDSQGQLHRVYLGPGSDGHPYSTQSIQQGSAVSRDLTFDGTFEHLYVMTQSTLLKVPVASCAQHLDCASCLAHRDPYCGWCVLLGRCSRRSECSRGQGPEQWLWSFQPELGCLQVAAMSPANISREETREVFLSVPDLPPLWPGESYSCHFGEHQSPALLTGSGVMCPSPDPSEAPVLPRGADYVSVSVELRFGAVVIAKTSLSFYDCVAVTELRPSAQCQACVSSRWGCNWCVWQHLCTHKASCDAGPMVASHQSPLVSPDPPARGGPSPSPPTAPKALATPAPDTLPVEPGAPSTATASDISPGASPSLLSPWGPWAGSGSISSPGSTGSPLHEEPSPPSPQNGPGTAVPAPTDFRPSATPEDLLASPLSPSEVAAVPPADPGPEALHPTVPLDLPPATVPATTFPGAMGSVKPALDWLTREGGELPEADEWTGGDAPAFSTSTLLSGDGDSAELEGPPAPLILPSSLDYQYDTPGLWELEEATLGASSCPCVESVQGSTLMPVHVEREIRLLGRNLHLFQDGPGDNECVMELEGLEVVVEARVECEPPPDTQCHVTCQQHQLSYEALQPELRVGLFLRRAGRLRVDSAEGLHVVLYDCSVGHGDCSRCQTAMPQYGCVWCEGERPRCVTREACGEAEAVATQCPAPLIHSVEPLTGPVDGGTRVTIRGSNLGQHVQDVLGMVTVAGVPCAVDAQEYEVSSSLVCITGASGEEVAGATAVEVPGRGRGVSEHDFAYQDPKVHSIFPARGPRAGGTRLTLNGSKLLTGRLEDIRVVVGDQPCHLLPEQQSEQLRCETSPRPTPATLPVAVWFGATERRLQRGQFKYTLDPNITSAGPTKSFLSGGREICVRGQNLDVVQTPRIRVTVVSRMLQPSQGLGRRRRVVPETACSLGPSCSSQQFEEPCHVNSSQLITCRTPALPGLPEDPWVRVEFILDNLVFDFATLNPTPFSYEADPTLQPLNPEDPTMPFRHKPGSVFSVEGENLDLAMSKEEVVAMIGDGPCVVKTLTRHHLYCEPPVEQPLPRHHALREAPDSLPEFTVQMGNLRFSLGHVQYDGESPGAFPVAAQ", "modifications": "bait human Fc-tagged dimer"}, "B9": {"name": "ADP375 (protein)", "chain": "SSKYAPDENCPDQNPRLRNWDPGQDSAKQVVIKEGDMLRLTSDATVHSIVIQDGGLLVFGDNKDGSRNITLRTHYILIQDGGALHIGAEKCRYKSKATITLYGKSDEGESMPTFGKKFIGVEAGGTLELHGARKASWTLLARTLNSSGLPFGSYTFEKDFSRGLNVRVIDQDTAKILESERFDTHEYRNESRRLQEFLRFQDPGRIVAIAVGDSAAKSLLQGTIQMIQERLGSELIQGLGYRQAWALVGVIDGGSTSCNESVRNYENHSSGGKALAQREFYTVDGQKFSVTAYSEWIEGVSLSGFRVEVVDGVKLNLLDDVSSWKPGDQIVVASTDYSMYQAEEFTLLPCSECSHFQVKVKETPQFLHMGEIIDGVDMRAEVGILTRNIVIQGEVEDSCYAENQCQFFDYDTFGGHIMIMKNFTSVHLSYVELKHMGQQQMGRYPVHFHLCGDVDYKGGYRHATFVDGLSIHHSFSRCITVHGTNGLLIKDTIGFDTLGHCFFLEDGIEQRNTLFHNLGLLTKPGTLLPTDRNNSMCTTMRDKVFGNYIPVPATDCMAVSTFWIAHPNNNLINNAAAGSQDAGIWYLFHKEPTGESSGLQLLAKPELTPLGIFYNNRVHSNFKAGLFIDKGVKTTNSSAADPREYLCLDNSARFRPHQDANPEKPRVAALIDRLIAFKNNDNGAWVRGGDIIVQNSAFADNGIGLTFASDGSFPSDEGSSQEVSESLFVGESRNYGFQGGQNKYVGTGGIDQKPRTLPRNRTFPIRGFQIYDGPIHLTRSTFKKYVPTPDRYSSAIGFLMKNSWQITPRNNISLVKFGPHVSLNVFFGKPGPWFEDCEMDGDKNSIFHDIDGSVTGYKDAYVGRMDNYLIRHPSCVNVSKWNAVICSGTYAQVYVQTWSTQNLSMTITRDEYPSNPMVLRGINQKAAFPQYQPVVMLEKGYTIHWNGPAPRTTFLYLVNFNKNDWIRVGLCYPSNTSFQVTFGYLQRQNGSLSKIEEYEPVHSLEELQRKQSERKFYFDSSTGLLFLYLKAKSHRHGHSYCSSQGCERVKIQAATDSKDISNCMAKAYPQYYRKPSVVKRMPAMLTGLCQGCGTRQVVFTSDPHKSYLPVQFQSPDKAETQRGDPSVISVNGTDFTFRSAGVLLLVVDPCSVPFRLTEKTVFPLADVSRIEEYLKTGIPPRSIVLLSTRGEIKQLNISHLLVPLGLAKPAHLYDKGSTIFLGFSGNFKPSWTKLFTSPAGQGLGVLEQFIPLQLDEYGCPRATTVRRRDLELLKQASKAH", "modifications": "bait human Fc-tagged dimer"}, "B10": {"name": "ADP282 (protein)", "chain": "STWVTSEAYSSPSIVLSARGGDGSRIIFDDFREAYYWLRHNTPEDAKVMSWWDYGYQITAMANRTILVDNNTWNNTHISRVGQAMASTEEKAYEIMRELDVSYVLVIFGGLTGYSSDDINKFLWMVRIGGSTDTGKHIKENDYYTPTGEFRVDREGSPVLLNCLMYKMCYYRFGQVYTEAKRPPGFDRVRNAEIGNKDFELDVLEEAYTTEHWLVRIYKVKDLDNRGLSRT", "modifications": "bait human Fc-tagged dimer"}}, "data": [{"molecular_target": "Circumsporozoite protein (CSP) (Plasmodium falciparum (isolate 3D7), UniProt Q7K740)", "sequence (Q7K740 19-374)": "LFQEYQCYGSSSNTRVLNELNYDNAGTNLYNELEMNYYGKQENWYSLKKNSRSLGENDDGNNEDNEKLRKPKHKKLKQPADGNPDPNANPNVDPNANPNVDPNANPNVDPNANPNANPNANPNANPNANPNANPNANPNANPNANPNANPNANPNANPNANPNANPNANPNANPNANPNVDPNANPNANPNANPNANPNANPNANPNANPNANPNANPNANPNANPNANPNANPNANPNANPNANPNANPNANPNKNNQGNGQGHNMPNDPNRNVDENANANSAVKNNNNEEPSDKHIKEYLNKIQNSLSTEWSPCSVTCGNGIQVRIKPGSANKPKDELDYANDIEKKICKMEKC", "test": "AVEXIS screen signal:noise (double-corrected)", "values": [{"binder": "B1", "binding score": 1.27}, {"binder": "B2", "binding score": 0.718}, {"binder": "B3", "binding score": 0.72}, {"binder": "B4", "binding score": 1.01}, {"binder": "B5", "binding score": 1.12}, {"binder": "B6", "binding score": 2.12}, {"binder": "B7", "binding score": 1.23}, {"binder": "B8", "binding score": 2.59}, {"binder": "B9", "binding score": 0.71}, {"binder": "B10", "binding score": 0.691}]}]}
